From the Human Domainome abundance scans (Beltran et al. 2025)
± gives the uncertainty stated by the source.

B1: Chromodomain-helicase-DNA-binding protein 4, residues 365 to 417; numbered along this chain, Q14839 (parent)
chain: YETDHQDYCEVCQQGGEIILCDTCPRAYHMVCLDPDMEKAPEGKWSCPHCEKE

Variants of: B1
Assay: abundance fitness (aPCA) (normalised: wild type 0, dead -1); higher = more abundant; growth selection in yeast, the domain comes from the species named
Conditions: Homo sapiens
With E38A the abundance fitness was -0.261 ± 0.11. Variant E38C has an abundance fitness of -0.028 ± 0.11. E38G showed an abundance fitness of -0.056 ± 0.082. Work on E38M yielded an abundance fitness of -0.784 ± 0.21. Variant E38V has an abundance fitness of -0.063 ± 0.11. E38Y showed an abundance fitness of -0.093 ± 0.25. With E38W the abundance fitness was -0.281 ± 0.14. With E38Q the abundance fitness was -0.19 ± 0.2. E38N showed an abundance fitness of -0.183 ± 0.26. Work on E38L yielded an abundance fitness of -0.197 ± 0.11. With E38K the abundance fitness was -0.244 ± 0.18. With E38F the abundance fitness was 0.142 ± 0.18. Work on E38I yielded an abundance fitness of -0.106 ± 0.18. With E38D the abundance fitness was -0.074 ± 0.15. Variant E38S has an abundance fitness of -0.266 ± 0.11. Variant E38R has an abundance fitness of -0.029 ± 0.1. E38T gave an abundance fitness of -0.657 ± 0.22. E38P showed an abundance fitness of -0.143 ± 0.13. Variant E38H has an abundance fitness of -0.079 ± 0.26. Variant E42D has an abundance fitness of -0.182 ± 0.16. Work on E42Q yielded an abundance fitness of -0.012 ± 0.17. Variant E42M has an abundance fitness of -0.069 ± 0.15. Variant E42F has an abundance fitness of -0.315 ± 0.22. With E42W the abundance fitness was -0.49 ± 0.14. Variant E42L has an abundance fitness of -0.087 ± 0.11. For E42I, the abundance fitness was -0.261 ± 0.23. Work on E42V yielded an abundance fitness of 0.066 ± 0.11. Variant E42H has an abundance fitness of -0.394 ± 0.21. Work on E42K yielded an abundance fitness of 0.026 ± 0.18. Variant E42G has an abundance fitness of -0.114 ± 0.11. E42C showed an abundance fitness of -0.026 ± 0.21. With E42S the abundance fitness was -0.129 ± 0.13. With E42T the abundance fitness was 0.066 ± 0.17. With E42P the abundance fitness was 0.052 ± 0.18. In the case of E42Y, the abundance fitness is reported as -0.17 ± 0.27. Work on E42A yielded an abundance fitness of -0.178 ± 0.13. In the case of C32T, the abundance fitness is reported as -0.94 ± 0.17. For C32E, the abundance fitness was -0.504 ± 0.17. C32M gave an abundance fitness of -0.687 ± 0.15. For C32K, the abundance fitness was -0.817 ± 0.22. In the case of C32S, the abundance fitness is reported as -0.952 ± 0.14. C32Y gave an abundance fitness of -1 ± 0.21. For C32W, the abundance fitness was -0.936 ± 0.13. Variant C32N has an abundance fitness of -1.04 ± 0.39. Work on C32I yielded an abundance fitness of -0.916 ± 0.24. C32P showed an abundance fitness of -0.794 ± 0.19. With C32A the abundance fitness was -0.737 ± 0.14. Variant C32V has an abundance fitness of -0.63 ± 0.12. Variant C32L has an abundance fitness of -0.776 ± 0.12. C32Q gave an abundance fitness of -1.08 ± 0.23. Work on C32H yielded an abundance fitness of -0.072 ± 0.21. Work on C32F yielded an abundance fitness of -1.02 ± 0.25. In the case of C32D, the abundance fitness is reported as -0.486 ± 0.21. In the case of C32G, the abundance fitness is reported as -0.967 ± 0.13. P41C showed an abundance fitness of -0.212 ± 0.14. Work on P41A yielded an abundance fitness of 0.117 ± 0.12. Variant P41I has an abundance fitness of 0.055 ± 0.17. With P41N the abundance fitness was 0.435 ± 0.23. P41Y gave an abundance fitness of 0.022 ± 0.19. In the case of P41H, the abundance fitness is reported as -0.378 ± 0.2. Work on P41M yielded an abundance fitness of -0.06 ± 0.16. P41F gave an abundance fitness of 0.034 ± 0.17. In the case of P41L, the abundance fitness is reported as -0.092 ± 0.1. Variant P41G has an abundance fitness of 0.151 ± 0.1. P41V showed an abundance fitness of -0.218 ± 0.12. In the case of P41Q, the abundance fitness is reported as -0.109 ± 0.18. In the case of P41E, the abundance fitness is reported as 0.07 ± 0.14. In the case of P41D, the abundance fitness is reported as 0.022 ± 0.17. In the case of P41R, the abundance fitness is reported as 0.123 ± 0.094. P41T showed an abundance fitness of -0.105 ± 0.16. With P41K the abundance fitness was -0.015 ± 0.18. With P41S the abundance fitness was -0.046 ± 0.1. L33W gave an abundance fitness of 0.024 ± 0.11. For L33F, the abundance fitness was 0.022 ± 0.18. For L33S, the abundance fitness was 0.141 ± 0.1. In the case of L33G, the abundance fitness is reported as -0.195 ± 0.095. For L33C, the abundance fitness was 0.026 ± 0.14. L33A gave an abundance fitness of 0.123 ± 0.12. With L33K the abundance fitness was -0.103 ± 0.14. Work on L33N yielded an abundance fitness of -0.547 ± 0.27. In the case of L33P, the abundance fitness is reported as -0.404 ± 0.17. With L33D the abundance fitness was -1.04 ± 0.24. Work on L33E yielded an abundance fitness of -0.496 ± 0.12. L33T gave an abundance fitness of 0.162 ± 0.12. For L33Y, the abundance fitness was -0.025 ± 0.16. For L33Q, the abundance fitness was -0.114 ± 0.19. For L33M, the abundance fitness was -0.084 ± 0.16. For H49Q, the abundance fitness was -0.141 ± 0.2. H49C showed an abundance fitness of 0.348 ± 0.19. For H49M, the abundance fitness was -0.354 ± 0.16. With H49K the abundance fitness was -0.2 ± 0.18. H49P gave an abundance fitness of -0.041 ± 0.12. Variant H49D has an abundance fitness of -0.241 ± 0.15. Work on H49N yielded an abundance fitness of -0.381 ± 0.23. Work on H49G yielded an abundance fitness of -0.086 ± 0.1. H49I gave an abundance fitness of -0.109 ± 0.17. With H49S the abundance fitness was -0.202 ± 0.11. For H49A, the abundance fitness was -0.281 ± 0.11. For H49T, the abundance fitness was -0.16 ± 0.14. Variant H49L has an abundance fitness of -0.213 ± 0.13. Variant H49E has an abundance fitness of -0.247 ± 0.12. In the case of H49F, the abundance fitness is reported as -0.068 ± 0.19. With H49R the abundance fitness was -0.044 ± 0.12. Work on P35M yielded an abundance fitness of -0.054 ± 0.16. For P35Y, the abundance fitness was 0.272 ± 0.26. Variant P35Q has an abundance fitness of -0.284 ± 0.22. For P35K, the abundance fitness was -0.374 ± 0.18. Variant P35W has an abundance fitness of -0.236 ± 0.13. P35E gave an abundance fitness of -0.345 ± 0.15. For P35R, the abundance fitness was 0.029 ± 0.1. With P35V the abundance fitness was -0.04 ± 0.098. Work on P35L yielded an abundance fitness of -0.191 ± 0.1. P35G showed an abundance fitness of 0.038 ± 0.089. Variant P35H has an abundance fitness of -0.001 ± 0.33. For P35T, the abundance fitness was 0.054 ± 0.14. Variant P35S has an abundance fitness of 0.125 ± 0.11. P35N showed an abundance fitness of -0.023 ± 0.26. P35C gave an abundance fitness of -0.1 ± 0.15. In the case of P35A, the abundance fitness is reported as -0.016 ± 0.097. Variant A40Q has an abundance fitness of -0.208 ± 0.16. With A40Y the abundance fitness was -0.462 ± 0.17. Variant A40E has an abundance fitness of -0.102 ± 0.16. A40F gave an abundance fitness of 0.015 ± 0.18. Work on A40C yielded an abundance fitness of -0.035 ± 0.16. A40K showed an abundance fitness of -0.043 ± 0.2. A40T showed an abundance fitness of -0.151 ± 0.14. A40D showed an abundance fitness of 0.016 ± 0.17. In the case of A40M, the abundance fitness is reported as 0.043 ± 0.14. A40R showed an abundance fitness of -0.178 ± 0.12. For A40S, the abundance fitness was -0.126 ± 0.094. Variant A40H has an abundance fitness of 0.33 ± 0.2. In the case of A40G, the abundance fitness is reported as -0.157 ± 0.1. A40P gave an abundance fitness of -0.209 ± 0.12. A40N showed an abundance fitness of -0.351 ± 0.27. A40I showed an abundance fitness of 0.464 ± 0.2. In the case of A40L, the abundance fitness is reported as 0.095 ± 0.1. A40V gave an abundance fitness of -0.093 ± 0.094. In the case of A40W, the abundance fitness is reported as -0.135 ± 0.13. With G43D the abundance fitness was -0.164 ± 0.19. With G43W the abundance fitness was -0.164 ± 0.11. In the case of G43R, the abundance fitness is reported as -0.09 ± 0.086. G43T gave an abundance fitness of -0.272 ± 0.15. With G43L the abundance fitness was -0.232 ± 0.099. Work on G43C yielded an abundance fitness of -0.217 ± 0.15. With G43P the abundance fitness was -0.209 ± 0.15. G43I gave an abundance fitness of -0.382 ± 0.22. For G43M, the abundance fitness was -0.151 ± 0.14. With G43Q the abundance fitness was -0.078 ± 0.15. Variant G43S has an abundance fitness of -0.099 ± 0.12. G43E showed an abundance fitness of 0.179 ± 0.15. In the case of G43N, the abundance fitness is reported as -0.076 ± 0.21. With G43H the abundance fitness was -0.505 ± 0.26. For G43F, the abundance fitness was -0.35 ± 0.18. With G43V the abundance fitness was -0.375 ± 0.12. For G43K, the abundance fitness was -0.012 ± 0.2. In the case of G43A, the abundance fitness is reported as 0.061 ± 0.12. In the case of M37N, the abundance fitness is reported as 0.141 ± 0.23. Variant M37F has an abundance fitness of 0.24 ± 0.15. With M37A the abundance fitness was -0.067 ± 0.11. M37Q gave an abundance fitness of -0.103 ± 0.15. For M37G, the abundance fitness was -0.199 ± 0.1. For M37E, the abundance fitness was -0.392 ± 0.14. Variant M37T has an abundance fitness of -0.329 ± 0.12. M37V gave an abundance fitness of 0.076 ± 0.094. For M37P, the abundance fitness was 0.026 ± 0.11. Work on M37R yielded an abundance fitness of 0.054 ± 0.095. With M37S the abundance fitness was 0.079 ± 0.12.
